Laboratory results reported in PMC3478262.

Molecular target: Rv0132c–Δ38 protein (Mycobacterium tuberculosis H37Rv) (UniProt P96809)
Experiment: SEC

## Rv0132c–Δ38 protein (from UniProt P96809 39-360) (domain or fragment)
  stoichiometry N: 2
